Patent US9308238B2, “Compositions and methods for modulating EMT and uses thereof” (Whitehead Institute for Biomedical Research, priority 2010, dated 2016)

B1: SFRP1: Recombinant human SFRP1 protein (R&D Systems), secreted decoy receptor binding canonical and non-canonical Wnt ligands (protein, UniProt Q8N474 32-314, looked up)
Secreted frizzled-related …: SEYDYVSFQSDIGPYQSGRFYTKPPQCVDIPADLRLCHNVGYKKMVLPNLLEHETMAEVKQQASSWVPLLNKNCHAGTQVFLCSLFAPVCLDRPIYPCRWLCEAVRDSCEPVMQFFGFYWPEMLKCDKFPEGDVCIAMTPPNATEASKPQGTTVCPPCDNELKSEAIIEHLCASEFALRMKIKEVKKENGDKKIVPKKKKPLKLGPIKKKDLKKLVLYLKNGADCPCHQLDNLSHHFLIMGRKVKSQYLLTAIHKWDKKNKEFKNFMKKMKNHECPTFQSVFK
B2: BMP4: Recombinant BMP4 protein obtained from Stemgent (protein, UniProt P12644 293-408, looked up)
Bone morphogenetic protein 4: SPKHHSQRARKKNKNCRRHSLYVDFSDVGWNDWIVAPPGYQAFYCHGDCPFPLADHLNSTNHAIVQTLVNSVNSSIPKACCVPTELSAISMLYLDEYDKVVLKNYQEMVVEGCGCR

Assays:
Format in all cases: cell-based, human
[1] = system: MSP-RAS primary tumorspheres; assay: Flow cytometry of CD44/CD24 in MSP-RAS primary tumorspheres; conditions: control tumorspheres 6.4%
Description: FIGS. 4A-4G. Autocrine Signaling controls tumorigenicity and metastasis of MSP-RAS cells. (FIG. 4A) Migration assay: RAS-transformed MSP (MSP-RAS) were seeded in Boyden Chamber migration assays and recombinant SFRP1 (1 μg/ml) and BMP4 protein (0.5 μg/ml) were added; *control vs. single treatment, p<1×10^−8, **single vs. double treatment with SFRP1 and BMP4 (S+B), p<1×10^−4, n=3. […] (FIG. 4E) Lung metastasis: fluorescence microscopy images of the major left lung lobe showing GFP-expressing metastatic nodules and quantification of the number of lung surface metastases; *control vs. SFRP1 treatment, p<0.05, **SFRP1 vs. BMP4 or double treatment (S+B), p<0.05, n=5 mice/group. (FIG. 4F) Liver metastasis: fluorescence microscopy images of the liver surface showing GFP-expressing micro-metastatic nodules after implantation of cells as described in (D) and quantification: 5 fields of liver surface were counted per mouse, *control vs. single treatment, p<0.05, **single vs. double treatment (S+B), p<0.05, n=5 mice/group. […]
Fluorescent activated cell sorting (FACS) and flow cytometry. […] Samples were sorted on a BD FACSAria SORP and analyzed on a BD LSRII using BD FACSDiva Software (BD Biosciences).

HTwist cells [2] = assay: Mammosphere assay, HTwist cells; conditions: for reduction in sphere-forming efficiency, primary mammosphere formation: single vs combined proteins, daily for 5 days (FIG. 10C)
Description: FIGS. 10A-10E. […] (FIG. 10E) Mammosphere Assay: HTwist and MSP were treated daily during mammosphere formation (5 days) with BMP4 (0.5 μg/ml), SB431542 (10 μM) or a combination of both, n(mammospheres)/1000 cells, n=6.
Mammosphere and tumorsphere assay. Assays were performed as previously described with modifications (Dontu et al., 2003): 1000 cells/well were seeded in 96-well ultra-low adhesion plates (Corning) in MEGM medium containing 1.3% methylcellulose (Stem Cell Technologies) supplemented with 20 ng/ml EGF, 10 ng/ml bFGF (both Sigma) and B27 (Gibco). Primary spheres were dissociated by trypsinization and replated for secondary sphere formation after a period of 5-7 days.

HTwist and MSP cells = assay: Boyden chamber migration assay, HTwist and MSP cells
Description: FIGS. 3A-3E. Autocrine Signaling controls migration and mammosphere formation.
FIGS. 10A-10E. […] (FIG. 10C) Mammosphere assay: HTwist cells were treated daily during mammosphere formation (5 days) with proteins as described in (B); *control vs. single treatment, p<1×10^−5, **single vs. double-treatment, p<0.01, n(mammospheres)/1000 cells, n=6, (FIG. 10D) Migration Assay: HTwist and MSP cells were seeded into Boyden Chambers in the presence of TGF-beta Receptor I inhibitors A83-01 and SB431542 (SB43, both at 10 μM). (FIG. 10E) Mammosphere Assay: HTwist and MSP were treated daily during mammosphere formation (5 days) with BMP4 (0.5 μg/ml), SB431542 (10 μM) or a combination of both, n(mammospheres)/1000 cells, n=6.
Migration and invasion assays. For migration assays, 2×10^4 cells were seeded into 24-well cell culture inserts with 8-μm pores (Boyden Chambers, BD Falcon). For invasion assays, matrigel-coated inserts (BD Falcon) were used. After 12-48 hr, the cells on the upper surface of the filters were removed with a cotton swab. For visualization, cells on lower filter surfaces were fixed and stained with a Diff-Quick staining kit (Dade Behring).

HTwist cells [3] = assay: Boyden chamber migration assay, HTwist cells (single vs combined proteins); conditions: DKK1 1 μg/ml, SFRP1, BMP4 0.5 μg/ml
Description: Migration and invasion assays. For migration assays, 2×10^4 cells were seeded into 24-well cell culture inserts with 8-μm pores (Boyden Chambers, BD Falcon). […] After 12-48 hr, the cells on the upper surface of the filters were removed with a cotton swab. For visualization, cells on lower filter surfaces were fixed and stained with a Diff-Quick staining kit (Dade Behring).

| Molecule | CD24-positive cells in primary tumorspheres [1] | reduction of primary mammosphere number (HTwist cells [2]; added daily for 5 days (FIG. 3D)) | reduction in sphere-forming efficiency, primary mammosphere formation (HTwist cells [2]) | reduction of secondary sphere formation (HTwist cells [2]; treated during primary sphere formation only) | reduction of migration (HTwist and MSP cells; at the highest concentration) | reduction of migration, single vs combined proteins (HTwist cells [3]) | maximum reduction of migration (HTwist and MSP cells; HTwist or MSP cells) |
| --- | --- | --- | --- | --- | --- | --- | --- |
| B1 | 40% | 50% | 40% | 90% | 20 fold | 5 fold |  |
| B2 | 40% |  | 64% |  |  | 2 fold | ≤ 2 fold |
